Holding throughout (experiment): split reporter
For data set [1], the target named is FGF14^Y153N/V155N (1b isoform) fused to split firefly luciferase fragments.
The target in data set [2] is T1, FGF14 (1b isoform), wild type, fused to split firefly luciferase fragments (UniProt Q92915).
T1 sequence: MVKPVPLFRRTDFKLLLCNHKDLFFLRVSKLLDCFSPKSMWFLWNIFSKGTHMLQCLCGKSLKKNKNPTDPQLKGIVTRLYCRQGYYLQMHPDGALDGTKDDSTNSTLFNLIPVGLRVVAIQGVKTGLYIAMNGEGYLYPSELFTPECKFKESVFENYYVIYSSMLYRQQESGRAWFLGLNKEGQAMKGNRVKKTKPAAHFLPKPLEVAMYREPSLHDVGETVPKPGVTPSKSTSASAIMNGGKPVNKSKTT

Data set [3] addresses T1, FGF14 (1b isoform), wild type, fused to split firefly luciferase fragments. This is another data set of the same source.
Data set [4] deals with FGF14^Y153N/V155N (1b isoform) fused to split firefly luciferase fragments. Conditions: split reporter (BiFC, NanoBiT).

We go through two molecules from paper PMC4809639.

Take “FGF14^Y153N/V155N (1b isoform) fused to split firefly luciferase fragments (natural protein)”: the values for the % maximal luminescence against the FGF14:FGF14 dimer in data set [1] and in data set [2] were 136% and 109%, respectively.

B1: Ac-FLPK-NH2 (peptide)
peptide: Ac-FLPK-NH2
B1 registered a % maximal luminescence of CLuc-FGF14:FGF14-NLuc left with 10 uM peptide in data set [3] of 75%. In addition, the “% maximal luminescence of the FGF14^Y153N/V155N:FGF14 heterodimer left with FLPK” value in data set [4] is 90.8 ± 5.1%.
